Experiment: soluble on expression in E. coli; label from the status in PepcDB or PDB records

| Sequence | soluble on expression in E. coli |
| --- | --- |
| MGSDKIHHHHHHMFPDGEISDVVVIGGGPAGAICALALARAGVDVKLMYWGGYAPGGIELVSGRGRHFIEQYCPDFFSEVVHGIEIHETASLWDTAEPVIFNAMFNPWGAGVAIERSLLDGALRNLASGAGGTIIPDAKVVDVERQHDRWRLIARSSEDASSNETTSRAGEFAIYARFIVLATGRVPLPFFDHAPVAESSQIALMTSLQARIAPRHTLYVEGTRNGWWYALPAEKGYFASFCIGRNELKQRQSRLKDFFFQELQCTRLLAPLSAGAFDQRPIAGRMAGATMFPAMGGDAWIAVGDATAAPDPLSGTGIEWAIESAQLGADMLLEALHGSKGNVLFDLPRYENTIRRRIAAQEKTAAYHYHRLKEIRET | not soluble |
| MQHYLLDSNQRLNVSFSKDSVAAYYQCFNQPYRKEVPPLMCASLWPKFDLFKKYANSELILTKSAINQTQKIEVDTIYVGHLEDIECRQTRNITRYTMALTLTKNDQHVITVTQTFIKAMKLEHHHHHH | soluble |
| MILTEQEKAEVEANRRRYEQHKALGQQQAPKALPPPTPRDGAPIAPESIIHRETVPGGWYYVTKLGRGEAVRIINTSGTSCVSIQAWNALDPSERLNHADTIKVQWAASLRKGRVILSDMGRALLSIIEDTSGAHDTMVGGSNAATNAERYGVGSFRNARDNFVLAAGKLGLDRRDVHPSIALFAPVAVDSQGRFEWHGERRHKGDFVDLRAELDLLIAVSNCPHPLDPSPSYAPGDIELIRYQAPQPASDDLCRTVSLEAKRAFENNAFYLAGAAGRALEHHHHHH | soluble |
| MSQGDSNPAAIPHAAEDIQGDDRWMSQHNRFVLDCKDKEPDVLFVGDSMVQLMQQYEIWRELFSPLHALNFGIGGDTTRHVLWRLKNGELENIKPKVIVVWVGTNNHENTAEEVAGGIEAIVQLINTRQPQAKIIVLGLLPRGEKPNPLRQKNAKVNQLLKVSLPKLANVQLLDTDGGFVHSDGAISCHDMFDFLHLTGGGYAKICKPLHELIMQLLEETPEEKQTTIA | soluble |
| FHLGKCPNPPVQENFDVNKYPGRWYEIEKIPTTFENGRCIQANYSLMENGKIKVLNQELRADGTVNQIEGEATPVNLTEPAKLEVKFSWFMPSAPYHILATDYENYALVYSCTSISQSFHVDFAWILARNVALPPETVDSLKNILTSNNIDVKKMTVTDQVNCPKLSAHHHHHH | soluble |
| MPPYTVVYFPVRGRCAALRMLLADQGQSWKEEVVTVETWQEGSLKASCLYGQLPAFQDGDLTLYQSNTILRHLGRTLGLYGKDQQEAALVDMVNDGVEDLRCKYISLIYTNYEAGKDDYVKALPGQLKPFETLLSQNQGGKTFIVGDQISFADYNLLDLLLIHEVLAPGCLDAFPLLSAYVGRLSARPKLKAFLASPEYVNLPINGNGKQ | soluble |
| MADFARSLSITTPEEMIEKAKGETAYLPCKFTLSPEDQGPLDIEWLISPADNQKVDQVIILYSGDKIYDDYYPDLKGRVHFTSNDLKSGDASINVTNLQLSDIGTYQCKVKKAPGVANKKIHLVVLVK | soluble |
| TTATRQEVLGLYRSIFRLARKWQATSGQMEDTIKEKQYILNEARTLFRKNKNLTDTDLIKQCIDECTARIEIGLHY | soluble |
| MGSSHHHHHHGGTGENLYFQGGSGMAYRHQATDQFHRFLHNPHVVQPDGVDGLPRVKGDQQQWLNTEQWHGYSDTYLQRHMQYPATVELNNPAVNARHDLLYECLGLVYELYGGLAEDLQELHDDPLHPHFHRRIARIKRDRERIATELDKRYAKLHPTVKTVYDAFLVRRYYHLADWIEHVERKRERLINDLSPDVMEKTMRMRGIAEQYLRHLRALEHALYEDPLMGLLGGDRGTNVLDQYTPGELAMLRQKAAYFRNMRRFGANQLDADMHTH | soluble |
| MAPQPFDIDTPSLRVFLPAPELATGRAIVACPGGGYGGLAVNHEGYDWAPYFNKQGIALIVLKYRMPHGDRTLPISDAEAAMKMARDSADVWNLNPYDIGIMGSSAGGHLASTIATHTRPELRPNFQILFYPVITMDKSYTHIGSHDNLLGKDAFAELETEFSNEKQVTKETPRAFIAYSDDDKTVPPANGVNYYLGLHKNHVPAVLHIYASGGHGWGIRENFIYLEHHHHHH | not soluble |
| MSQAFTESVKTSLGPNATPRAKKLIASLVQHVHDFARENHLTTEDWLWGVDFINRIGQMSDSRRNEGILVCDIIGLETLVDALTNESEQSNHTSSAILGPFYLPDSPVYPNGGSIVQKAIPTDVKCFVRGKVTDTEGKPLGGAQLEVWQCNSAGFYSQQADHDGPEFNLRGTFITDDEGNYSFECLRPTSYPIPYDGPAGDLLKIMDRHPNRPSHIHWRVSHPGYHTLITQIYDAECPYTNNDSVYAVKDDIIVHFEKVDNKDKDLVGKVEYKLDYDISLATESSIQEARAAAKARQDAEIKL | soluble |

Source: the DeepSol protein solubility set
